{
  "source": "paper doi:10.1101/2025.03.12.642038",
  "about": "“Structural, biophysical and biological analysis and characterisation of IRF4 DNA-binding domain mutations associated with multiple myeloma”",
  "binders": {"B1": {"name": "IRE hairpin (biotin) (structured_DNA)", "DNA": "CTTGGTTTCACTTCCTGCGTTTTCGCAGGAAGTGAAACCAAG"}},
  "test_in_all_cases": "SPR steady state; FP: PBS + 0.05% Tween20, 5 nM DNA, 1 h, room temperature; SPR: Biacore S200, SA chip, protein 0.1-4500 nM, running buffer not given in material; errors are SD",
  "key": {"[1]": {"biological_target": "T1, IRF4 DBD L70V (Homo sapiens, UniProt Q15306 20-132, L70V)", "T1 sequence": "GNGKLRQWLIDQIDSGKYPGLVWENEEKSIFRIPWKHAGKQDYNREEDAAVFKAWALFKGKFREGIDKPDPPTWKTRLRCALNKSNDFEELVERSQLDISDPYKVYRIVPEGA", "conditions": "protein: recombinant; tags: N-terminal His8-linker-His8-TEV, cleaved; label: 3' biotin; hairpin, TTTT loop"}, "[2]": {"biological_target": "T2, IRF4 DBD C99S (Homo sapiens, UniProt Q15306 20-132, C99S)", "T2 sequence": "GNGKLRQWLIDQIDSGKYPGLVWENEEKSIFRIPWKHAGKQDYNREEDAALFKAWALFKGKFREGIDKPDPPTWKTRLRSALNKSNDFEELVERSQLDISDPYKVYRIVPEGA", "conditions": "protein: recombinant; label: 3' biotin; hairpin, TTTT loop"}, "[3]": {"biological_target": "T3, IRF4 DBD C99A (Homo sapiens, UniProt Q15306 20-132, C99A)", "T3 sequence": "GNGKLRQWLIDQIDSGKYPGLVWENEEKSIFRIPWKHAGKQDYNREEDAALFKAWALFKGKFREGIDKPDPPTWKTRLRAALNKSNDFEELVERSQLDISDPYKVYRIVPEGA", "conditions": "protein: recombinant; tags: N-terminal His8-linker-His8-TEV, cleaved; label: 3' biotin; hairpin, TTTT loop"}, "[4]": {"biological_target": "T4, IRF4 DBD D117H (Homo sapiens, UniProt Q15306 20-132, D117H)", "T4 sequence": "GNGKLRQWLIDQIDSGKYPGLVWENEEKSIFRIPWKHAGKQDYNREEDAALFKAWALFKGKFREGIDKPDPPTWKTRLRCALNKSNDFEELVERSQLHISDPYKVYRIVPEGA", "conditions": "protein: recombinant; tags: N-terminal His8-linker-His8-TEV, cleaved; label: 3' biotin; hairpin, TTTT loop"}, "[5]": {"biological_target": "T5, IRF4 DBD wild-type (Homo sapiens, UniProt Q15306 20-132)", "T5 sequence": "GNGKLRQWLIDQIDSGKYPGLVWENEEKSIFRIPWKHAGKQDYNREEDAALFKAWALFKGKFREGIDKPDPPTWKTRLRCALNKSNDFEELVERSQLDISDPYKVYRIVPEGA", "conditions": "protein: recombinant; tags: N-terminal His8-linker-His8-TEV, cleaved; label: 3' biotin; hairpin, TTTT loop"}, "[6]": {"biological_target": "T6, IRF4 DBD S114R (Homo sapiens, UniProt Q15306 20-132, S114R)", "T6 sequence": "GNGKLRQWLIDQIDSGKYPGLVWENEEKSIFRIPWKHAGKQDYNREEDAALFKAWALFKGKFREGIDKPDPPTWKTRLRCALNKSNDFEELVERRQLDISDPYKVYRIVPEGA", "conditions": "protein: recombinant; tags: N-terminal His8-linker-His8-TEV, cleaved; label: 3' biotin; hairpin, TTTT loop"}, "[7]": {"biological_target": "T7, IRF4 DBD T95K (Homo sapiens, UniProt Q15306 20-132, T95K)", "T7 sequence": "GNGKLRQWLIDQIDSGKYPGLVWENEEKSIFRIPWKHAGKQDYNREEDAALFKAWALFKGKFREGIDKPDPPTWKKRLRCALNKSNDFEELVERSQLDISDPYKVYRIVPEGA", "conditions": "protein: recombinant; tags: N-terminal His8-linker-His8-TEV, cleaved; label: 3' biotin; hairpin, TTTT loop"}, "[8]": {"biological_target": "T8, IRF4 DBD D106Y (Homo sapiens, UniProt Q15306 20-132, D106Y)", "T8 sequence": "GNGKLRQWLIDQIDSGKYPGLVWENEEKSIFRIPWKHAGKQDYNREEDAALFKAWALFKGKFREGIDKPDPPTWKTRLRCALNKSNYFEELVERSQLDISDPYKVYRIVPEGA", "conditions": "protein: recombinant; tags: N-terminal His8-linker-His8-TEV, cleaved; label: 3' biotin; hairpin, TTTT loop"}, "[9]": {"biological_target": "T9, IRF4 DBD K123R (Homo sapiens, UniProt Q15306 20-132, K123R)", "T9 sequence": "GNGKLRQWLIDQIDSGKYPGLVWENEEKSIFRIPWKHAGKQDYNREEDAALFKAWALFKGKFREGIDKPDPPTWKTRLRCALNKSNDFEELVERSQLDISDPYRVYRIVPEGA", "conditions": "protein: recombinant; tags: N-terminal His8-linker-His8-TEV, cleaved; label: 3' biotin; hairpin, TTTT loop"}, "[10]": {"biological_target": "T10, IRF4 DBD T95R (Homo sapiens, UniProt Q15306 20-132, T95R)", "T10 sequence": "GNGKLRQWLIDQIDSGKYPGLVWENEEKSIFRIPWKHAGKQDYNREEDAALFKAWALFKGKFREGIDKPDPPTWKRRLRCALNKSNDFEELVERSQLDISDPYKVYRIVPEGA", "conditions": "protein: recombinant; tags: N-terminal His8-linker-His8-TEV, cleaved; label: 3' biotin; hairpin, TTTT loop"}},
  "data": [
    {"binder": "B1", "values": [
      {"measurement": "Kd", "setting": "[1]", "result": "167 ± 82", "unit": "nM"},
      {"measurement": "Kd", "setting": "[2]", "result": "338 ± 173", "unit": "nM"},
      {"measurement": "Kd", "setting": "[3]", "result": "173 ± 60", "unit": "nM"},
      {"measurement": "Kd", "setting": "[4]", "result": "247 ± 84", "unit": "nM"},
      {"measurement": "Kd", "setting": "[5]", "result": "402 ± 165", "unit": "nM"},
      {"measurement": "Kd", "setting": "[6]", "result": "213 ± 94", "unit": "nM"},
      {"measurement": "Kd", "setting": "[7]", "result": "594 ± 251", "unit": "nM"},
      {"measurement": "Kd", "setting": "[8]", "result": "178 ± 43", "unit": "nM"},
      {"measurement": "Kd", "setting": "[9]", "result": "491 ± 48", "unit": "nM"},
      {"measurement": "Kd", "setting": "[10]", "result": "449 ± 49", "unit": "nM"}
    ]}
  ]
}
